The target in assay [1] is T1, ErbB3 (UniProt P21860 20-643, limits assumed, biotinylated).
T1 construct: ELISA antigen
As to the kind of experiment: direct bind ELISA, N-term VD.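 Further: antibody or DVD-Ig preparations bound to immobilized target antigen on ELISA plates, 1 h at room temperature, TMB detection read as absorbance at 450 nm.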 For orientation: In an ELISA, binding on a coated surface is turned into a signal by an enzyme label.

The target of assay [2] is T2, EGFR (UniProt P00533 25-645, limits assumed, biotinylated).
T2 construct: ELISA antigen; construct not described
Put plainly: direct bind ELISA, C-term VD.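 Further: ELISA with antibody or DVD-Ig preparations applied to target antigen-coated plates for 1 h at room temperature, TMB colour development, absorbance read at 450 nm.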

B1: DVD772 (bispecific antibody)
VH: EVQLVESGGGLVQPGGSLRLSCAASGFTFSIYSMNWVRQAPGKGLEWVSYISSSSSTIYYADSVKGRFTISRDNAKNSLYLQMNSLRDEDTAVYYCARDRGDFDAFDIWGQGTMVTVSSASTKGPSVFPLAPQVQLQESGPGLVKPSQTLSLTCTVSGYSISSDFAWNWIRQPPGKGLEWMGYISYSGNTRYQPSLKSRITISRDTSKNQFFLKLNSVTAADTATYYCVTAGRGFPYWGQGTLVTVSS
VL: DIQMTQSPSSLSASVGDRVTITCQASQDITNYLNWYQQKPGKAPKLLIYDASNLETGVPSRFSGSGSGTDFTFTISSLQPEDIATYNCQQCENFPITFGQGTRLEIKRTVAAPSVFIFPPDIQMTQSPSSMSVSVGDRVTITCHSSQDINSNIGWLQQKPGKSFKGLIYHGTNLDDGVPSRFSGSGSGTDYTLTISSLQPEDFATYYCVQYAQFPWTFGGGTKLEIKR
notes: DVD-Ig; HC L, LC L; variable parts only
A word on the EC50: it is the concentration needed to bring the measured effect to its halfway point. A higher EC50 goes with lower potency in that assay. Take B1: the EC50 in assay [1] amounted to 31.4 nM; in assay [2], 77.2 nM.

B2: DVD832 (bispecific antibody)
VH: EVQLVESGGGLVQPGGSLRLSCAASGFTFSIYSMNWVRQAPGKGLEWVSYISSSSSTIYYADSVKGRFTISRDNAKNSLYLQMNSLRDEDTAVYYCARDRGDFDAFDIWGQGTMVTVSSASTKGPQVQLQESGPGLVKPSQTLSLTCTVSGYSISSDFAWNWIRQPPGKGLEWMGYISYSGNTRYQPSLKSRITISRDTSKNQFFLKLNSVTAADTATYYCVTAGRGFPYWGQGTLVTVSS
VL: DIQMTQSPSSLSASVGDRVTITCQASQDITNYLNWYQQKPGKAPKLLIYDASNLETGVPSRFSGSGSGTDFTFTISSLQPEDIATYNCQQCENFPITFGQGTRLEIKRTVAAPSVFIFPPDIQMTQSPSSMSVSVGDRVTITCHSSQDINSNIGWLQQKPGKSFKGLIYHGTNLDDGVPSRFSGSGSGTDYTLTISSLQPEDFATYYCVQYAQFPWTFGGGTKLEIKR
notes: DVD-Ig; HC S, LC L; variable parts only
As to B2, the EC50 came out at 1.19 nM in assay [1] and 62.4 nM in assay [2].

B3: DVD802 (bispecific antibody)
VH: EVQLVESGGGLVQPGGSLRLSCAASGFTFSIYSMNWVRQAPGKGLEWVSYISSSSSTIYYADSVKGRFTISRDNAKNSLYLQMNSLRDEDTAVYYCARDRGDFDAFDIWGQGTMVTVSSASTKGPSVFPLAPQVQLQESGPGLVKPSQTLSLTCTVSGYSISSDFAWNWIRQPPGKGLEWMGYISYSGNTRYQPSLKSRITISRDTSKNQFFLKLNSVTAADTATYYCVTAGRGFPYWGQGTLVTVSS
VL: DIQMTQSPSSLSASVGDRVTITCQASQDITNYLNWYQQKPGKAPKLLIYDASNLETGVPSRFSGSGSGTDFTFTISSLQPEDIATYNCQQCENFPITFGQGTRLEIKRTVAAPDIQMTQSPSSMSVSVGDRVTITCHSSQDINSNIGWLQQKPGKSFKGLIYHGTNLDDGVPSRFSGSGSGTDYTLTISSLQPEDFATYYCVQYAQFPWTFGGGTKLEIKR
notes: DVD-Ig; HC L, LC S; variable parts only
As to B3, the results for the EC50 in assay [1] and in assay [2] were 11.1 nM and 726 nM, respectively.

B4: DVD788 (bispecific antibody)
VH: EVQLLESGGGLVQPGGSLRLSCAASGFTFSHYVMAWVRQAPGKGLEWVSSISSSGGWTLYADSVKGRFTISRDNSKNTLYLQMNSLRAEDTAVYYCTRGLKMATIFDYWGQGTLVTVSSASTKGPSVFPLAPQVQLQESGPGLVKPSQTLSLTCTVSGYSISSDFAWNWIRQPPGKGLEWMGYISYSGNTRYQPSLKSRITISRDTSKNQFFLKLNSVTAADTATYYCVTAGRGFPYWGQGTLVTVSS
VL: QSALTQPASVSGSPGQSITISCTGTSSDVGSYNVVSWYQQHPGKAPKLIIYEVSQRPSGVSNRFSGSKSGNTASLTISGLQTEDEADYYCCSYAGSSIFVIFGGGTKVTVLGQPKAAPSVTLFPPDIQMTQSPSSMSVSVGDRVTITCHSSQDINSNIGWLQQKPGKSFKGLIYHGTNLDDGVPSRFSGSGSGTDYTLTISSLQPEDFATYYCVQYAQFPWTFGGGTKLEIKR
notes: as for B1
With B4, the EC50 was determined as 3.14 nM in assay [1] and 18 nM in assay [2].

B5: DVD818 (bispecific antibody)
VH: EVQLLESGGGLVQPGGSLRLSCAASGFTFSHYVMAWVRQAPGKGLEWVSSISSSGGWTLYADSVKGRFTISRDNSKNTLYLQMNSLRAEDTAVYYCTRGLKMATIFDYWGQGTLVTVSSASTKGPSVFPLAPQVQLQESGPGLVKPSQTLSLTCTVSGYSISSDFAWNWIRQPPGKGLEWMGYISYSGNTRYQPSLKSRITISRDTSKNQFFLKLNSVTAADTATYYCVTAGRGFPYWGQGTLVTVSS
VL: QSALTQPASVSGSPGQSITISCTGTSSDVGSYNVVSWYQQHPGKAPKLIIYEVSQRPSGVSNRFSGSKSGNTASLTISGLQTEDEADYYCCSYAGSSIFVIFGGGTKVTVLGQPKAAPDIQMTQSPSSMSVSVGDRVTITCHSSQDINSNIGWLQQKPGKSFKGLIYHGTNLDDGVPSRFSGSGSGTDYTLTISSLQPEDFATYYCVQYAQFPWTFGGGTKLEIKR
notes: as for B3
Consider B5, for which the EC50 in assay [1] is 3.32 nM; in assay [2], 19.3 nM.

B6: DVD848 (bispecific antibody)
VH: EVQLLESGGGLVQPGGSLRLSCAASGFTFSHYVMAWVRQAPGKGLEWVSSISSSGGWTLYADSVKGRFTISRDNSKNTLYLQMNSLRAEDTAVYYCTRGLKMATIFDYWGQGTLVTVSSASTKGPQVQLQESGPGLVKPSQTLSLTCTVSGYSISSDFAWNWIRQPPGKGLEWMGYISYSGNTRYQPSLKSRITISRDTSKNQFFLKLNSVTAADTATYYCVTAGRGFPYWGQGTLVTVSS
VL: QSALTQPASVSGSPGQSITISCTGTSSDVGSYNVVSWYQQHPGKAPKLIIYEVSQRPSGVSNRFSGSKSGNTASLTISGLQTEDEADYYCCSYAGSSIFVIFGGGTKVTVLGQPKAAPSVTLFPPDIQMTQSPSSMSVSVGDRVTITCHSSQDINSNIGWLQQKPGKSFKGLIYHGTNLDDGVPSRFSGSGSGTDYTLTISSLQPEDFATYYCVQYAQFPWTFGGGTKLEIKR
notes: as for B2
As for B6, the half-maximal effective concentration (EC50) in assay [1] amounted to 3.23 nM; in assay [2] it was 16.7 nM.

B7: DVD330 (bispecific antibody)
VH: EVQLVESGGGLVQPGGSLRLSCAASGFTFSIYSMNWVRQAPGKGLEWVSYISSSSSTIYYADSVKGRFTISRDNAKNSLYLQMNSLRDEDTAVYYCARDRGDFDAFDIWGQGTMVTVSSASTKGPQVQLQESGPGLVKPSQTLSLTCTVSGYSISSDFAWNWIRQPPGKGLEWMGYISYSGNTRYQPSLKSRITISRDTSKNQFFLKLNSVTAADTATYYCVTAGRGFPYWGQGTLVTVSS
VL: DIQMTQSPSSLSASVGDRVTITCQASQDITNYLNWYQQKPGKAPKLLIYDASNLETGVPSRFSGSGSGTDFTFTISSLQPEDIATYNCQQCENFPITFGQGTRLEIKRTVAAPDIQMTQSPSSMSVSVGDRVTITCHSSQDINSNIGWLQQKPGKSFKGLIYHGTNLDDGVPSRFSGSGSGTDYTLTISSLQPEDFATYYCVQYAQFPWTFGGGTKLEIKR
notes: DVD-Ig; HC S, LC S; variable parts only
For B7, the EC50 in assay [1] was determined as 1.29 nM; in assay [2], 224 nM.

B8: DVD328 (bispecific antibody)
VH: QVQLQQWGAGLLKPSETLSLTCAVYGGSFSGYYWSWIRQPPGKGLEWIGEINHSGSTNYNPSLKSRVTISVETSKNQFSLKLSSVTAADTAVYYCARDKWTWYFDLWGRGTLVTVSSASTKGPQVQLQESGPGLVKPSQTLSLTCTVSGYSISSDFAWNWIRQPPGKGLEWMGYISYSGNTRYQPSLKSRITISRDTSKNQFFLKLNSVTAADTATYYCVTAGRGFPYWGQGTLVTVSS
VL: DIEMTQSPDSLAVSLGERATINCRSSQSVLYSSSNRNYLAWYQQNPGQPPKLLIYWASTRESGVPDRFSGSGSGTDFTLTISSLQAEDVAVYYCQQYYSTPRTFGQGTKVEIKRTVAAPDIQMTQSPSSMSVSVGDRVTITCHSSQDINSNIGWLQQKPGKSFKGLIYHGTNLDDGVPSRFSGSGSGTDYTLTISSLQPEDFATYYCVQYAQFPWTFGGGTKLEIKR
notes: as for B7
Turning to B8, the EC50 in assay [1] turned out to be 1.14 nM; in assay [2], 94.9 nM.

B9: DVD770 (bispecific antibody)
VH: QVQLQQWGAGLLKPSETLSLTCAVYGGSFSGYYWSWIRQPPGKGLEWIGEINHSGSTNYNPSLKSRVTISVETSKNQFSLKLSSVTAADTAVYYCARDKWTWYFDLWGRGTLVTVSSASTKGPSVFPLAPQVQLQESGPGLVKPSQTLSLTCTVSGYSISSDFAWNWIRQPPGKGLEWMGYISYSGNTRYQPSLKSRITISRDTSKNQFFLKLNSVTAADTATYYCVTAGRGFPYWGQGTLVTVSS
VL: DIEMTQSPDSLAVSLGERATINCRSSQSVLYSSSNRNYLAWYQQNPGQPPKLLIYWASTRESGVPDRFSGSGSGTDFTLTISSLQAEDVAVYYCQQYYSTPRTFGQGTKVEIKRTVAAPSVFIFPPDIQMTQSPSSMSVSVGDRVTITCHSSQDINSNIGWLQQKPGKSFKGLIYHGTNLDDGVPSRFSGSGSGTDYTLTISSLQPEDFATYYCVQYAQFPWTFGGGTKLEIKR
notes: as for B1
As to B9, the EC50 in assay [1] stood at 1.55 nM; in assay [2], 15.2 nM.

B10: DVD800 (bispecific antibody)
VH: QVQLQQWGAGLLKPSETLSLTCAVYGGSFSGYYWSWIRQPPGKGLEWIGEINHSGSTNYNPSLKSRVTISVETSKNQFSLKLSSVTAADTAVYYCARDKWTWYFDLWGRGTLVTVSSASTKGPSVFPLAPQVQLQESGPGLVKPSQTLSLTCTVSGYSISSDFAWNWIRQPPGKGLEWMGYISYSGNTRYQPSLKSRITISRDTSKNQFFLKLNSVTAADTATYYCVTAGRGFPYWGQGTLVTVSS
VL: DIEMTQSPDSLAVSLGERATINCRSSQSVLYSSSNRNYLAWYQQNPGQPPKLLIYWASTRESGVPDRFSGSGSGTDFTLTISSLQAEDVAVYYCQQYYSTPRTFGQGTKVEIKRTVAAPDIQMTQSPSSMSVSVGDRVTITCHSSQDINSNIGWLQQKPGKSFKGLIYHGTNLDDGVPSRFSGSGSGTDYTLTISSLQPEDFATYYCVQYAQFPWTFGGGTKLEIKR
notes: as for B3
As for B10, the EC50 in assay [1] is 2.06 nM; in assay [2] it was 67.3 nM.

B11: DVD830 (bispecific antibody)
VH: QVQLQQWGAGLLKPSETLSLTCAVYGGSFSGYYWSWIRQPPGKGLEWIGEINHSGSTNYNPSLKSRVTISVETSKNQFSLKLSSVTAADTAVYYCARDKWTWYFDLWGRGTLVTVSSASTKGPQVQLQESGPGLVKPSQTLSLTCTVSGYSISSDFAWNWIRQPPGKGLEWMGYISYSGNTRYQPSLKSRITISRDTSKNQFFLKLNSVTAADTATYYCVTAGRGFPYWGQGTLVTVSS
VL: DIEMTQSPDSLAVSLGERATINCRSSQSVLYSSSNRNYLAWYQQNPGQPPKLLIYWASTRESGVPDRFSGSGSGTDFTLTISSLQAEDVAVYYCQQYYSTPRTFGQGTKVEIKRTVAAPSVFIFPPDIQMTQSPSSMSVSVGDRVTITCHSSQDINSNIGWLQQKPGKSFKGLIYHGTNLDDGVPSRFSGSGSGTDYTLTISSLQPEDFATYYCVQYAQFPWTFGGGTKLEIKR
notes: as for B2
On to B11, for which the EC50 stood at 1.43 nM in assay [1] and 42.7 nM in assay [2].
